Measured values reported in article PMC8079451, “Phosphopeptide interactions of the Nbs1 N-terminal FHA-BRCT1/2 domains” (Scientific Reports, 2021).
Numbering of substitutions follows the chain as printed. Square brackets hold non-standard residues; d marks the D form. Primed or numbered codes have the meaning given here. Ends that are not written are not given here. Peptide text beside a SMILES is read from it. FITC′ = fluorescein isothiocyanate label; pT = C[C@@H](OP(=O)(O)O)[C@H](N)C(=O)O; pS = N[C@@H](COP(=O)(O)O)C(=O)O

Experiments:
hsNbs1(384) = biological target: T1, hsNbs1(384) (Homo sapiens, UniProt O60934); assay: Fluorescence polarization (FP) binding of FITC-labeled phosphopeptides to hsNbs1(384); conditions: wild-type hsNbs1(384); for binding to Nbs1(384), in words: FP assay
T1 construct: The N-terminal 384 residues of homo sapiens Nbs1 (hsNbs1(384) containing the FHA-BRCT1-BRCT2 domains); made in house; host or cells: E. coli BL21(DE3) pLacI
T1 sequence (O60934 1-384): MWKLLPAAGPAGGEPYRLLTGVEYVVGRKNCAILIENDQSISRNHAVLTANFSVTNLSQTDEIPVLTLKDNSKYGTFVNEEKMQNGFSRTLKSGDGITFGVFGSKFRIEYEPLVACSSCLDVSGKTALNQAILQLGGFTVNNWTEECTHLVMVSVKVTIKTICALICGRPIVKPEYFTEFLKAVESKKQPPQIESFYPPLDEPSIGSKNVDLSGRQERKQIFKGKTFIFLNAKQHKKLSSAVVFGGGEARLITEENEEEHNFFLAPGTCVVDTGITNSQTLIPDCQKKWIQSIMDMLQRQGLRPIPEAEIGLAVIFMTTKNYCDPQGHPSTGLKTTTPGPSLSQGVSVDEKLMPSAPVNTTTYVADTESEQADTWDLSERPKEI
Method: Figure 4 Binding of FITC-labeled peptides to hsNbs1(384). Solid lines with filled data markers show normalized fluorescence polarization of the following peptides (see Table 1 for peptide sequences) as a function of the concentration of hsNbs1(384) corresponding to: CtIP-pS347 (gray); CtIP-pT847 (blue); FANCJ (green); CtIP-859 (orange); ChK2-pT68 (yellow). FP studies were performed at room temperature in 25 mM HEPES (pH 7.4), 150 mM NaCl, 1 mM EDTA, 2 mM DTT, 0.05% Tween20, 0.1% BSA after a 15-min incubation period. The data points were fit to a single-site non-cooperative model.
Phosphopeptide-protein interactions were measured by a fluorescence polarization (FP) assay. 100 nM FITC-labeled phosphopeptides were incubated at room temperature for 15 min with the indicated concentrations of hsNbs1(384) in FP buffer composed of 25 mM HEPES, 150 mM NaCl, 1 mM EDTA, 2 mM DTT, 0.05% Tween20, 0.1% BSA, pH 7.4 prior to the measurement of fluorescence polarization (POLARstar Omega microplate reader, BMG Labtech). All samples were prepared in a 96-well black flat-bottomed polypropylene microplate and each well contained 50 µL. Each well was recorded by 100 flashes with an excitation wavelength of 485 nm, and detection of emission at 520 nm. Data for the interaction of a phosphopeptide with hsNbs1(384) were analyzed using non-linear fitting with a one-site total binding model. All Kd values were determined in triplicate, and reported as mean ± standard deviation. All phosphopeptides used were synthesized by GenScript.

[1] = biological target: T2, hsNbs1(384), the N-terminal 384 residues of homo sapiens Nbs1 containing the FHA-BRCT1-BRCT2 domains (human, UniProt O60934 1-384); assay: fluorescence polarisation; 100 nM FITC-labeled phosphopeptide with increasing hsNbs1(384); room temperature, 15 min incubation; 25 mM HEPES pH 7.4, 150 mM NaCl, 1 mM EDTA, 2 mM DTT, 0.05% Tween20, 0.1% BSA; one-site model; conditions: both partners purified
T2 construct: gene optimised for E. coli, cloned into pET30a (NdeI/HindIII); also called wt; source: E. coli BL21(DE3) pLacI, purified (Ni-NTA, HiTrap Q, Superdex 75)
T2 sequence (looked up): T1 sequence (O60934 1-384)

[2] = biological target: T3, hsNbs1(384)(R28S,K29S,R43A) triple mutant (human, UniProt O60934 1-384, R28S | K29S | R43A); assay: as above; conditions: both partners purified
T3 construct: source: E. coli BL21(DE3) pLacI, purified as the wild type
T3 sequence (looked up): T1 sequence (O60934 1-384) with R28S, K29S, R43A

CC(C)C[C@H](NC(=O)[C@H](CCC(=O)O)NC(=O)[C@H](CC(=O)O)NC(=O)[C@H](CCC(=O)O)NC(=O)[C@@H](NC(=O)[C@H](CC(=O)O)NC(=O)CNC(=O)[C@H](COP(=O)(O)O)NC(=O)[C@H](CC(=O)O)NC(=O)[C@H](CCC(=O)O)NC(=O)[C@H](C)NC(=O)CNC(=O)[C@H](CC(N)=O)NC(=O)[C@H](CC(=O)O)NC(=O)[C@H](CCC(N)=O)NC(=O)CNC(=O)[C@H](CCC(=O)O)NC(=O)[C@H](CO)NC(=O)[C@H](CCC(N)=O)NC(=O)[C@@H](NC(=O)CNC(=O)[C@@H](N)CCC(=O)O)C(C)C)[C@@H](C)OP(=O)(O)O)C(=O)N[C@@H](CCCNC(=N)N)C(=O)O (H-EGVQSEGQDNGAED[pS]GD[pT]EDELR-OH) was tested, and the “difference in Kd between N-terminal and C-terminal fluorescein-tagged XRCC1 pS485,pT488 peptides” value (hsNbs1(384); FP, Kd 35 µM vs 4.5 µM) was “eightfold”.

For “DPYAG(pSpT)DENTDSEEHQE [XRCC1 pS518,pT519, FITC-labeled XRCC1 phosphopeptide with consecutively phosphorylated pSer518-pThr519]”, the “binding to Nbs1(384), in words” value (hsNbs1(384)) was “no interaction”.

For “TRVS[pS]PVFGAT [CtIP pS327, FITC-labeled CtIP pSer327 peptide that targets the tandem BRCA1 BRCT domains]”, the “binding to Nbs1(384), in words” value (hsNbs1(384)) was “does not bind”.

B1: Chk2 pT68 phosphopeptide SLETVS(pT)QELYSIPED with C-terminal K/FITC (peptide)
peptide: SLETVS[pT]QELYSIPEDK(FITC′)
notes: Checkpoint 2 kinase (Chk2), stretch around pT68; added C-terminal lysine that carries FITC (footnote b: C-terminal K/FITC); source: synthetic peptide (GenScript)
B1 gave a Kd [1] of 98.7 µM.

B2: CtIP pT312,pT315 phosphopeptide TEDSLRFSDS(pT)SK(pT)PPQEELP with C-terminal K/FITC (peptide)
peptide: TEDSLRFSDS[pT]SK[pT]PPQEELPK(FITC′)
notes: CtIP, human, stretch around pT312 and pT315; added C-terminal lysine that carries FITC (footnote b: C-terminal K/FITC); also called test peptide containing the pThr312-Ser-Lys-pThr315; source: synthetic peptide (GenScript)
B2 was tested, and the Kd [1] was 90 µM.

B3: XRCC1 pS485,pT488 phosphopeptide EGVQSEGQDNGAED(pS)GD(pT)EDELR with C-terminal K/FITC (peptide)
peptide: EGVQSEGQDNGAED[pS]GD[pT]EDELRK(FITC′)
notes: XRCC1, human, stretch around pS485 and pT488; added C-terminal lysine that carries FITC (footnote b: C-terminal K/FITC); also called XRCC1 pSer485-Gly-Asp-pThr488 peptide containing a C-terminal fluorescein; source: synthetic peptide (GenScript)
B3 was tested, and the Kd [1] was 4.5 µM.

B4: CtIP pS347 phosphopeptide GLDLNTSL(pS)PSLLQPGKKK with C-terminal K/FITC (peptide)
peptide: GLDLNTSL[pS]PSLLQPGKKKK(FITC′)
notes: CtIP, human, stretch around pS347; added C-terminal lysine that carries FITC (footnote b: C-terminal K/FITC); also called CtIP pSer347 peptide; pSer347 peptide; source: synthetic peptide (GenScript)
In the case of B4, the Kd [1] is reported as 2.64 µM.

B5: FANCJ pT1133 phosphopeptide EDESIYF(pT)PELYDPEIE with C-terminal K/FITC (peptide)
peptide: EDESIYF[pT]PELYDPEIEK(FITC′)
notes: FANCJ helicase, stretch around pT1133; added C-terminal lysine that carries FITC (footnote b: C-terminal K/FITC); A shorter FANCJ phosphopeptide (SIYFpTPELYD) stands in the cited TopBP1 BRCT7/8 structure PDB 3AL3; also called FANCJ pThr1133 phosphopeptide; FANCJ phosphopeptide; source: synthetic peptide (GenScript)
B5 was tested, and the Kd [1] was 26.9 µM.

B6: XRCC1 pS485,pT488 phosphopeptide FITC-GG-DNGAED(pS)GD(pT)EDELR (peptide)
peptide: {FITC′}-GGDNGAED[pS]GD[pT]EDELR
notes: Gly-Gly between the N-terminal FITC and the peptide; XRCC1, human, stretch around pS485 and pT488; also called XRCC1 pSer485-Gly-Asp-pThr488 peptide with an N-terminal fluorescein tag; source: synthetic peptide (GenScript)
For B6, the Kd [1] was 34.8 µM.

B7: hsMDC1 phosphopeptide FITC-GG-PFGFID(pS)D(pT)DVEEER (peptide)
peptide: {FITC′}-GGPFGFID[pS]D[pT]DVEEER
notes: Gly-Gly between the N-terminal FITC and the peptide; MDC1, human, one of the SDT repeats; also called second test peptide containing the pSer-Asp-pThr motif; source: synthetic peptide (GenScript)
In the case of B7, the Kd [2] is reported as 1.6 µM.

B8: XRCC1 pS518,pT519 phosphopeptide FITC-GG-DPYAG(pSpT)DENTDSEEHQE (peptide)
peptide: {FITC′}-GGDPYAG[pS][pT]DENTDSEEHQE
notes: Gly-Gly between the N-terminal FITC and the peptide; XRCC1, human, stretch around pS518 and pT519; also called XRCC1 pSer518-pThr519 phosphopeptide; source: synthetic peptide (GenScript)
B8 showed a Kd [1] of over 65 µM.

B9: MDC1 pS329,pT331 phosphopeptide FITC-GG-FID(pS)D(pT)DAEEE (peptide)
peptide: {FITC′}-GGFID[pS]D[pT]DAEEE
notes: Gly-Gly between the N-terminal FITC and the peptide; MDC1, human, stretch around pS329 and pT331; also called hsMDC1; source: synthetic peptide (GenScript)
In the case of B9, the Kd [2] is reported as 1.47 µM and the Kd [1] is reported as 0.65 µM.

B10: CtIP pT859 phosphopeptide WEVGFPS(pT)QTCMERGYI with C-terminal K/FITC (peptide)
peptide: WEVGFPS[pT]QTCMERGYIK(FITC′)
notes: CtIP, human, stretch around pT859; added C-terminal lysine that carries FITC (footnote b: C-terminal K/FITC); also called CtIP-859; source: synthetic peptide (GenScript)
In the case of B10, the Kd [1] is reported as 90.5 µM.

B11: CtIP pT847 phosphopeptide FITC-GG-RYIPPN(pT)PENFWEVG (peptide)
peptide: {FITC′}-GGRYIPPN[pT]PENFWEVG
notes: Gly-Gly between the N-terminal FITC and the peptide; CtIP, human, stretch around pT847; source: synthetic peptide (GenScript)
B11 gave a Kd [1] of 22 µM.
